# According to patent publication US5461032:
# Biological target: voltage-sensitive sodium channel of nerve membrane (house fly, Musca domestica, third instar larvae) (Musca domestica)
substance,measurement,value
toxin 4 of the scorpion Leiurus quinquestriatus (peptide),activity of insect peripheral nerve preparations,> 500 nM
